Common to all, as to format: binding
Series [1] is described as follows: Hybridoma supernatant competition test in ECL bridging assay. As to conditions: hybridoma culture supernatant; signal decreased in the presence of low level of 5-FU. How it is done: Hybridomas were screened between days 10-14 for the secretion of 5-FU antibody by the 5-FU antibody assay (Bridging-assay) described before. 25 μL of culture supernatant were transferred to an assay plate and mixed with 50 μL of 5-FU antibody assay master mix containing 100 ng/mL of each Bi-1-3C-5-FU-BSA and TAG Plus 1-3C-5-FU-BSA in 200 μg/mL of M280-SA beads. Samples were incubated for 30 minutes with shaking. Beads were recovered and resuspended in 150 μL of DILUENT and read in an M384 analyzer with 100 μL draw volume. Hybridomas identified from plates with greater than 20% of growing wells were re-cloned by limiting dilution in 96-well plate at 0.3 and 1.0 cells/well.
5-FU antibody specificity and cross-reactivity was tested on hybridomas that were identified as positive for 5-FU binding. […]
Typically, 25 μL of culture supernatant were mixed with 50 μL of 5-FU assay master mix containing 100 ng/mL of each Bi-1-3C-5-FU-BSA and TAG Plus 1-3C-5-FU-BSA in 200 μg/mL of M280-SA beads with or without competing chemicals. […] Beads were recovered and resuspended in 150 μL of DILUENT and read in an M384 analyzer with 100 μL draw volume.
X_RCT=cross-reactivity (calculated 5-FU concentration/10 μg/mL).

Series [2] can be described thus: Indirect antibody ELISA, cross-reactivity with cytosine. The conditions noted are these: Table 3; (IC50 for 5-FU/IC50 for testing chemical)%. An excerpt:
(§1) This indirect antibody ELISA assay 5-FU assay was constructed using either 1-3C-5-FU-BSA or 1-5C-5-FU-BSA as antibody capture reagent and a horseradish perioxidase (HRP) conjugated goat anti-mouse antibody as the antibody detector reagent. The binding of 5-FU antibody was detected with 3,3,5,5-TetraMethylBenzidine (TMB) as the HRP enzyme substrate. The 5-FU ELISA assay signal (OD450) decreased proportionally to the increasing concentration of 5-FU. The 5-FU IC50 and tegafur cross-reactivity were determined as in the previous section.
(§2) In addition to tegafur, several 5-FU structurally related chemicals were also evaluated for their cross-reactivity to the antibodies generated with 5-FU conjugate with the 3-carbon linker and were summarized below in Table 3. […] However, antibody 36H11 was highly specific for 5-FU and was detected for about 12% or lower cross-reactivity with tegafur.

A short description of series [3]: Indirect antibody ELISA, cross-reactivity with uracil. The conditions noted are these: Table 3; (IC50 for 5-FU/IC50 for testing chemical)%.
Description: as §1, §2

A short description of series [4]: Indirect antibody ELISA on 5-FU-BSA coated plates, competition with 5-FU. How it is done: (§3) In this experiment, antibody capture reagents were 5-FU BSA conjugates modified at the 5-FU position 1 with either 3-carbon or 5-carbon linkers. 5-FU was conjugated to BSA by mixing 1-5C-5-FU-NHS ester with BSA at a challenge ratio of 12:1 (molar ratios of 1-5C-5-FU-NHS to BSA) in a phosphate buffer containing a phosphate buffered saline containing 10.5 mM KH2PO4, 139.5 mM K2HPO4 and 150.6 mM NaCl, =pH 7.7-7.9 (typically pH 7.8) for 1 hour or more incubation at room temperature (typically 1 hour incubation at room temperature). After the incubation, unbound 1-5C-5-FU-NHS ester was removed by 3 buffer exchanges in an AmiconUltra4-30K filter (Millipore, Cat#UFC803024). BSA conjugated with 5-FU (5-FU-BSA) was concentrated and stored in the same phosphate buffer (pH 7.8).
This indirect antibody ELISA assay 5-FU assay was constructed using either 1-3C-5-FU-BSA or 1-5C-5-FU-BSA as antibody capture reagent and a horseradish perioxidase (HRP) conjugated goat anti-mouse antibody as the antibody detector reagent. The binding of 5-FU antibody was detected with 3,3,5,5-TetraMethylBenzidine (TMB) as the HRP enzyme substrate. The 5-FU ELISA assay signal (OD450) decreased proportionally to the increasing concentration of 5-FU. The 5-FU IC50 and tegafur cross-reactivity were determined as in the previous section. […]

A short description of series [5]: Indirect antibody ELISA, cross-reactivity with thymine. As to conditions: Table 3; (IC50 for 5-FU/IC50 for testing chemical)%.
Description: as §1, §2

Series [6] is described as follows: ECL assay with TAG Plus mAb as detector and position-3 modified 5-FU capture reagent. The conditions noted are these: Bi-3-5C-5-FU-HSA pre-bound M280-SA beads. How it is done:
Unless otherwise specifically mentioned, a 5-FU immunoassay was set up by mixing the same volumes of sample with capture reagent first and then with detector reagent in a 96 well plate. After adding reagents, samples were mixed for 5 minutes at room temperature with shaking. After the incubation, beads were recovered by attaching a plate magnet to the assay plate for 2 minutes and resuspending in 150 μL of DILUENT. Samples were either read in an M384 or an M1MR analyzer with 100 μL draw volume under the 96 standard round plate protocol.
The performance of TAG Plus conjugated antibody 61C6 as an assay detector reagent was studied. Assay performance was evaluated in 5-FU Antibody Screening Buffer with a 5-fold 5-FU serial dilution curve from 150 μg/mL to 9.6 ng/mL as 5-FU calibrators (samples).
A total of 5 capture reagents were evaluated in this experiment. Three capture reagents were 5-FU bound to M280-SA beads through biotinylated BSA including Bi-1-3C-5-FU-BSA, Bi-1-5C-5-FU-BSA and Bi-3-5C-5-FU-HSA pre-bound to M280-SA beads at the ratio of 1.0 μg capture reagent per mg beads (200 μg/mL). […]
The assay detector reagent used was TAG Plus 5-FU mAb 61C6 at the concentration of 2.0 μg/mL. […] The plate was read in an M384 ECL Analyzer with a draw volume of 100 μL under 96 standard plate protocol. […]

Series [7] in a line: Indirect antibody ELISA, cross-reactivity with DH-5-FU. The conditions noted are these: Table 3; (IC50 for 5-FU/IC50 for testing chemical)%.
Description: as §1, §2

Series [8] in a line: Indirect antibody ELISA, cross-reactivity with tegafur. The conditions noted are these: (IC50 for 5-FU/IC50 for testing chemical)%. How it is done:
as §3, with “BSA conjugated with 5-FU (5-FU-BSA) was concentrated and stored in the same phosphate buffer (pH 7.8).” left out
This indirect antibody ELISA assay 5-FU assay was constructed using either 1-3C-5-FU-BSA or 1-5C-5-FU-BSA as antibody capture reagent and a horseradish perioxidase (HRP) conjugated goat anti-mouse antibody as the antibody detector reagent. The binding of 5-FU antibody was detected with 3,3,5,5-TetraMethylBenzidine (TMB) as the HRP enzyme substrate. […] The 5-FU IC50 and tegafur cross-reactivity were determined as in the previous section. […]
In addition to tegafur, several 5-FU structurally related chemicals were also evaluated for their cross-reactivity to the antibodies generated with 5-FU conjugate with the 3-carbon linker and were summarized below in Table 3. […]

B1: mAb 61C6: monoclonal anti-5-FU antibody, IgG2b κ; heavy chain SEQ ID NO:2, light chain SEQ ID NO:6; from 3-carbon linker immunogen (antibody, listed as Mus musculus)
heavy: MDWLWNLLFLMAAAQSIQAQIQLVQSGPELKKPGETVTISCKASGYTLTNYGMNWVKQAPGKGLKWMGWINTNSGEPTYVEEFKGRFAFSLETSVSTVYLQISDLKHEDTATYFCARWGPHFNAYGWFAYWGQGTLVTVSAAKTTPPSVYPLAPGCGDTTGSSVTLGCLVKGYFPESVTVTWNSGSLSSSVHTFPALLQSGLYTMSSSVTVPSSTWPSQTVTCSVAHPASSTTVDKKLEPSGPISTINPCPPCKECHKCPAPNLEGGPSVFIFPPNIKDVLMISLTPKVTCVVVDVSEDDPDVQISWFVNNVEVHTAQTQTHREDYNSTIRVVSTLPIQHQDWMSGKEFKCKVNNKDLPSPIERTISKIKGLVRAPQVYILPPPAEQLSRKDVSLTCLVVGFNPGDISVEWTSNGHTEENYKDTAPVLDSDGSYFIYSKLNMKTSKWEKTDSFSCNVRHEGLKNYYLKKTISRSPGK
light: MMSSAQFLGLLLLCFQGTRCYIQMTQTASSLSASLGDRVTISCRASQDIWNYLNWYQQKPDGTIKLLIYYKSRLHSGVPSRFSGSGSGIDFSLTISNLEQEDFATYFCQQGHTLPWTFGGGSKLEIKRADAAPTVSIFPPSSEQLTSGGASVVCFLNNFYPKDINVKWKIDGSERQNGVLNSWTDQDSKDSTYSMSSTLTLTKDEYERHNSYTCEATHKTSTSPIVKSFNRNEC
notes: monoclonal anti-5-FU antibody, IgG2b κ; from 3-carbon linker immunogen
For B1, the “specificity to 5-FU” value in series [1] is recorded as “better specificity to 5-FU”. Also, the “Cross-reactivity Cytosine” value in series [2] was found to be 0.57%. Further, the “Cross-reactivity Uracil” value in series [3] is given as 1.4%. In series [4] (Table 3, (IC50 for 5-FU/IC50 for testing chemical)%, reference), the “Cross-reactivity 5-FU” value is reported as 100%. For the same molecule, in series [4] (indirect ELISA, 5-FU IC50 on 5-carbon vs 3-carbon linker 5-FU conjugate), the “Ratio of IC50 on 5-FU Conjugates with 5-carbon Linker vs. 3-carbon Linker” value came out at 4.7. For the same molecule, in series [5], the “Cross-reactivity Thymine” value is given as “Undetectble”. The “reactivity with position 3 modified 5-FU (3-5C-5-FU-HSA) capture reagent” value in series [6] is given as “reactive”. For the same molecule, the “Cross-reactivity DH-5-FU” value in series [7] is given as 1.4%. Further, the “Cross-reactivity Tegafur” value in series [8] (Table 3) was 28%. Further, the “Tegafur Cross-reactivity**” value in series [8] (indirect ELISA) was determined as 28%.

The values above are taken from patent publication US9702869B2, “Assays, antibodies, immunogens and compositions related to 5-FU” (WELLSTAT DIAGNOSTICS, LLC, priority 2011, dated 2017).
